According to the Human Domainome abundance scans (Beltran et al. 2025):
± gives the uncertainty stated by the source.

B1: Bromodomain adjacent to zinc finger domain protein 2B, residues 1927 to 1982; numbered along this chain, Q9UIF8 (parent)
chain: KSIMKVYCQICRKGDNEELLLLCDGCDKGCHTYCHRPKITTIPDGDWFCPACIAKA
B2: Zinc finger homeobox protein 3, residues 2244 to 2299; numbered along this chain, Q15911 (parent)
chain: SSRTRFTDYQLRVLQDFFDANAYPKDDEFEQLSNLLNLPTRVIVVWFQNARQKARK

Variants of: B1
Test: abundance fitness (aPCA) (normalised: wild type 0, dead -1); higher = more abundant; growth selection in yeast, the domain comes from the species named
Conditions: Homo sapiens

Abundance fitness: each site, then its substitutions
S2: H 0.085 ± 0.25, E 0.034 ± 0.24, W -0.379 ± 0.14, I 0.051 ± 0.27, N -0.506 ± 0.32, C -0.181 ± 0.14, Q -0.073 ± 0.23, T 0.019 ± 0.2, M -0.23 ± 0.21, V -0.156 ± 0.14, A -0.084 ± 0.1, F -0.155 ± 0.22, P -0.243 ± 0.15, G 0.065 ± 0.097, K -0.1 ± 0.14, R -0.077 ± 0.091, D 0.061 ± 0.16, Y -0.558 ± 0.4
Y7: M -0.059 ± 0.097, R -0.152 ± 0.065, C -0.136 ± 0.13, L -0.14 ± 0.083, A -0.09 ± 0.073, P -0.179 ± 0.12, K -0.147 ± 0.12, D 0.142 ± 0.099, S -0.025 ± 0.078, V -0.145 ± 0.071, F -0.086 ± 0.17, N 0.057 ± 0.14, T -0.102 ± 0.1, G -0.118 ± 0.067, H -0.045 ± 0.14, Q -0.043 ± 0.12, E -0.018 ± 0.085, I -0.197 ± 0.18
V6: S 0.014 ± 0.092, K 0.117 ± 0.16, Q -0.043 ± 0.11, E -0.092 ± 0.12, H -0.036 ± 0.2, F 0.064 ± 0.2, L -0.076 ± 0.077, P -0.143 ± 0.11, T -0.028 ± 0.098, I -0.068 ± 0.13, Y 0.171 ± 0.2, R 0.036 ± 0.064, N -0.124 ± 0.27, A -0.132 ± 0.1, G -0.045 ± 0.072, M -0.064 ± 0.11, D -0.007 ± 0.21, C -0.208 ± 0.13
C8: I -1.34 ± 0.43, M -0.807 ± 0.34, G -0.916 ± 0.073, Q -0.661 ± 0.22, A -1.25 ± 0.15, L -1.13 ± 0.13, N -1.11 ± 0.33, P -0.686 ± 0.17, D -1 ± 0.16, E -0.836 ± 0.15, H -1.02 ± 0.24, F -0.978 ± 0.36
K1: S -0.176 ± 0.14, D -0.199 ± 0.2, I -0.262 ± 0.2, F -0.783 ± 0.4, T -0.155 ± 0.25, E -0.035 ± 0.12, A -0.398 ± 0.35, Y -0.318 ± 0.34, M -0.157 ± 0.14, C -0.279 ± 0.19, V -0.581 ± 0.36, R -0.366 ± 0.12, L -0.693 ± 0.38
K5: A -0.158 ± 0.094, T -0.056 ± 0.089, L -0.202 ± 0.08, I -0.334 ± 0.17, F -0.444 ± 0.15, R -0.095 ± 0.084, V -0.176 ± 0.078, E -0.156 ± 0.12, Q -0.113 ± 0.099, W -0.303 ± 0.11, M -0.083 ± 0.13, N -0.035 ± 0.16, P -0.198 ± 0.1, D -0.162 ± 0.13, S -0.019 ± 0.091, G -0.077 ± 0.079, C -0.125 ± 0.13
I3: F -0.282 ± 0.2, C -0.129 ± 0.14, W -0.221 ± 0.092, D 0.059 ± 0.14, H -0.144 ± 0.13, R -0.125 ± 0.066, N 0.105 ± 0.15, A 0.014 ± 0.077, Q 0.104 ± 0.17, S -0.052 ± 0.076, L -0.189 ± 0.075, Y -0.327 ± 0.16, P -0.081 ± 0.096, M -0.088 ± 0.11, T -0.063 ± 0.1, E -0.103 ± 0.087, V -0.079 ± 0.064
M4: S -0.161 ± 0.091, N -0.169 ± 0.16, T -0.06 ± 0.11, C -0.054 ± 0.12, P -0.183 ± 0.13, K -0.127 ± 0.17, E -0.184 ± 0.12, L -0.145 ± 0.082, Q -0.065 ± 0.12, G -0.325 ± 0.071, V -0.138 ± 0.081, A -0.316 ± 0.086, R -0.157 ± 0.08, I -0.068 ± 0.12, H -0.009 ± 0.22

Variants of: B2
Test: as above
Conditions: Homo sapiens

Abundance fitness: each site, then its substitutions
W46: K -0.764 ± 0.16, M -0.81 ± 0.14, C -0.759 ± 0.2, S -0.526 ± 0.13, Q -1.17 ± 0.24, L -1.09 ± 0.15, G -0.856 ± 0.1, D -1.14 ± 0.29, E -0.749 ± 0.13, V -0.88 ± 0.11, F -0.244 ± 0.19, T -0.611 ± 0.18, H -0.617 ± 0.26, A -0.86 ± 0.15, P -1.07 ± 0.22
I43: H -1.13 ± 0.28, S -0.845 ± 0.13, E -1.07 ± 0.21, L -0.163 ± 0.11, G -0.637 ± 0.11, C -0.36 ± 0.17, A -0.56 ± 0.11, N -1 ± 0.29, M -0.439 ± 0.14, R -0.837 ± 0.094, K -0.744 ± 0.26, Q -0.637 ± 0.19, W -0.879 ± 0.17, T -0.396 ± 0.12, V -0.056 ± 0.1, D -0.772 ± 0.18, F -0.792 ± 0.24
F47: H -0.534 ± 0.12, N -0.928 ± 0.13, S -0.75 ± 0.084, P -0.89 ± 0.12, Q -1.02 ± 0.17, I -0.408 ± 0.096, V -0.565 ± 0.083, R -0.941 ± 0.1, G -0.66 ± 0.1, T -0.618 ± 0.095, W -0.399 ± 0.14, C -0.728 ± 0.11, L -0.639 ± 0.088, Y -0.112 ± 0.094, A -0.729 ± 0.1, K -0.983 ± 0.2, D -0.751 ± 0.13, E -0.762 ± 0.2
N49: L -0.334 ± 0.093, I -0.259 ± 0.17, G 0.046 ± 0.081, D 0.066 ± 0.18, Y -0.497 ± 0.25, C -0.163 ± 0.12, Q -0.207 ± 0.14, S -0.056 ± 0.11, E 0.141 ± 0.13, M -0.287 ± 0.15, W -0.252 ± 0.1, H -0.249 ± 0.21, R -0.207 ± 0.089, T -0.119 ± 0.11, F -0.581 ± 0.28, V -0.362 ± 0.11, P -0.986 ± 0.2, A -0.222 ± 0.11, K -0.024 ± 0.17
K56: F -0.089 ± 0.24, I -0.302 ± 0.16, A 0.063 ± 0.2, N 0.103 ± 0.14, H -0.053 ± 0.12, Q -0.163 ± 0.41, G -0.029 ± 0.23, T -0.032 ± 0.11, P 0.004 ± 0.19, D -0.026 ± 0.23, M -0.045 ± 0.22, Y -0.158 ± 0.16, R -0.028 ± 0.12
R55: D -0.104 ± 0.2, W -0.302 ± 0.17, N -0.218 ± 0.16, L -0.001 ± 0.074, S 0.142 ± 0.075, T -0.043 ± 0.089, M -0.211 ± 0.16, K 0.005 ± 0.24, Q 0.049 ± 0.15, V -0.048 ± 0.11, P 0.051 ± 0.075, F -0.069 ± 0.1, G -0.128 ± 0.11, Y -0.073 ± 0.13, C -0.229 ± 0.12, A -0.172 ± 0.12, H 0.104 ± 0.12, I -0.093 ± 0.097
A54: G 0.081 ± 0.26
K53: Y -0.12 ± 0.091, V -0.085 ± 0.092, H 0.013 ± 0.081, G -0.005 ± 0.11, M 0.008 ± 0.12, P -0.237 ± 0.082, C -0.029 ± 0.095, T -0.008 ± 0.078, D 0.202 ± 0.11, W -0.083 ± 0.16, N 0.138 ± 0.09, S 0.062 ± 0.074, A 0.032 ± 0.1, L -0.013 ± 0.07, R -0.116 ± 0.09, I -0.019 ± 0.088, E 0.162 ± 0.16, Q -0.109 ± 0.1
V45: Y -0.19 ± 0.11, H 0.032 ± 0.092, P -0.21 ± 0.076, I -0.055 ± 0.098, T -0.028 ± 0.074, G 0.077 ± 0.071, M -0.142 ± 0.083, S 0.008 ± 0.074, F -0.171 ± 0.1, L -0.12 ± 0.076, Q 0.046 ± 0.089, K -0.061 ± 0.095, D 0.155 ± 0.096, W -0.136 ± 0.1, C 0.088 ± 0.097, E 0.244 ± 0.1, A 0.004 ± 0.074
Q52: P -0.263 ± 0.068, S -0.023 ± 0.068, A -0.008 ± 0.077, Y -0.14 ± 0.097, W -0.204 ± 0.12, T -0.036 ± 0.07, F -0.21 ± 0.08, D 0.239 ± 0.12, R -0.135 ± 0.071, H -0.092 ± 0.08, M -0.142 ± 0.11, N -0.144 ± 0.088, V 0.128 ± 0.083, L -0.107 ± 0.065, K -0.077 ± 0.12, C 0.002 ± 0.093
Q48: T -0.168 ± 0.14, K -0.034 ± 0.16, C -0.221 ± 0.18, W -0.554 ± 0.15, F -0.245 ± 0.19, L -0.309 ± 0.12, I -0.085 ± 0.17, G -0.029 ± 0.085, E 0.086 ± 0.14, A -0.146 ± 0.13, R -0.071 ± 0.09, V -0.066 ± 0.12, H -0.407 ± 0.19, N -0.259 ± 0.21, S -0.022 ± 0.1
V44: K -0.071 ± 0.16, A -0.134 ± 0.1, T -0.056 ± 0.15, Q -0.015 ± 0.15, R -0.093 ± 0.092, L -0.005 ± 0.11, I -0.223 ± 0.2, Y -0.571 ± 0.21, S 0.08 ± 0.13, G 0.034 ± 0.083, H -0.524 ± 0.27, D 0.121 ± 0.19, W -0.084 ± 0.12, E -0.059 ± 0.11, F -0.174 ± 0.32, M -0.031 ± 0.13
R51: L -0.137 ± 0.34, G -0.606 ± 0.43, H -0.382 ± 0.41, S -0.256 ± 0.28, C -0.168 ± 0.48
A50: N 0.009 ± 0.097, M 0.047 ± 0.12, E -0.095 ± 0.14, P -1.01 ± 0.11, Y -0.196 ± 0.1, Q -0.197 ± 0.12, S -0.084 ± 0.081, C -0.047 ± 0.093, L -0.159 ± 0.073, V -0.322 ± 0.08, D -1.01 ± 0.17, H -0.253 ± 0.095, R -0.061 ± 0.079, G -0.298 ± 0.081, T -0.08 ± 0.086, W -0.496 ± 0.13, K -0.09 ± 0.12, I -0.241 ± 0.11
